The values that follow come from publication PMC4470507.

Assay [1] has as its target PfCCT MΔK^R681H, R681H point mutant of the second catalytic domain construct of Plasmodium falciparum CTP:phosphocholine cytidylyltransferase (528–795, Δ720–737) (Plasmodium falciparum). Kind of assay: native MS; native electrospray, QTOF, positive ion mode; 5 mM NH4HCO3 pH 7.2; gel filtered protein at 0.4 μM monomer concentration; source temperature 80°C; dimer to monomers; 3 samples from different expressions.

The target in assay [2] is PfCCT MΔK^WT, second catalytic domain construct of Plasmodium falciparum CTP:phosphocholine cytidylyltransferase (528–795, Δ720–737) (Plasmodium falciparum). The assay is described as above.

For “PfCCT MΔK^R681H, R681H point mutant of the second catalytic domain construct of Plasmodium falciparum CTP:phosphocholine cytidylyltransferase (528–795, Δ720–737) (domain or fragment)”, the fold decrease of the dimer:monomer abundance ratio against PfCCT MΔK^WT in assay [1] turned out to be 20 times lower.
Broadly, the stoichiometry N is the number of molecules, sites or subunits per partner or assembly. In assay [2], “PfCCT MΔK^WT, second catalytic domain construct of Plasmodium falciparum CTP:phosphocholine cytidylyltransferase (528–795, Δ720–737) (domain or fragment)” came in with a stoichiometry N of 2.
